One assay deals with T1, rat CDH6, on cells (rat, UniProt P55280 54-789).
T1 construct: also called rCDH6; NP_037059
T1 sequence: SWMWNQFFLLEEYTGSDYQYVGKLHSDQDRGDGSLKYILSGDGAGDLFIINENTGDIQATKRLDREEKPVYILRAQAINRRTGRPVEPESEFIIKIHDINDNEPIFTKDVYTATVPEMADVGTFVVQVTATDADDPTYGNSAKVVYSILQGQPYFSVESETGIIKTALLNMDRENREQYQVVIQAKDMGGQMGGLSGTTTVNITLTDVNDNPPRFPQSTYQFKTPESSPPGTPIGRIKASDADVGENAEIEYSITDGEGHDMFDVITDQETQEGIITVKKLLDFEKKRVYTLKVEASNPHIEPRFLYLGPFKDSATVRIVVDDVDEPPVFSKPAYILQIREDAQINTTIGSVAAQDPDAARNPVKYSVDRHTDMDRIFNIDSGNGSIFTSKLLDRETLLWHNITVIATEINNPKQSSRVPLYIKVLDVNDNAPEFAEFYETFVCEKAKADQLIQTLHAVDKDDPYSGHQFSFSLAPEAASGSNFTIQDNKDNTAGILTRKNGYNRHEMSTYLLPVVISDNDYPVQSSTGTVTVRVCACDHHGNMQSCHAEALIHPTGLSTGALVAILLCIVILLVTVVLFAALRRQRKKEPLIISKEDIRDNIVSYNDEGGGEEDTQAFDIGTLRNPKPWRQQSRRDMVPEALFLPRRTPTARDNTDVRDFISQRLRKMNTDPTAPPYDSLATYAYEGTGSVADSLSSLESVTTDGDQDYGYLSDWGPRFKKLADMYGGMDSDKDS
In words: flow cytometry; 293α cells transfected with rCDH6; PE anti-human IgG Fc(gamma) goat F(ab'). For orientation: A flow cytometer gives signals particle by particle.

For assay [1], the target named is T2, EC3 deletion mutant of human CDH6, on cells (human, UniProt P55285 54-790).
T2 construct: in p3×FLAG-CMV-9; also called EC3-deleted hCDH6
T2 sequence: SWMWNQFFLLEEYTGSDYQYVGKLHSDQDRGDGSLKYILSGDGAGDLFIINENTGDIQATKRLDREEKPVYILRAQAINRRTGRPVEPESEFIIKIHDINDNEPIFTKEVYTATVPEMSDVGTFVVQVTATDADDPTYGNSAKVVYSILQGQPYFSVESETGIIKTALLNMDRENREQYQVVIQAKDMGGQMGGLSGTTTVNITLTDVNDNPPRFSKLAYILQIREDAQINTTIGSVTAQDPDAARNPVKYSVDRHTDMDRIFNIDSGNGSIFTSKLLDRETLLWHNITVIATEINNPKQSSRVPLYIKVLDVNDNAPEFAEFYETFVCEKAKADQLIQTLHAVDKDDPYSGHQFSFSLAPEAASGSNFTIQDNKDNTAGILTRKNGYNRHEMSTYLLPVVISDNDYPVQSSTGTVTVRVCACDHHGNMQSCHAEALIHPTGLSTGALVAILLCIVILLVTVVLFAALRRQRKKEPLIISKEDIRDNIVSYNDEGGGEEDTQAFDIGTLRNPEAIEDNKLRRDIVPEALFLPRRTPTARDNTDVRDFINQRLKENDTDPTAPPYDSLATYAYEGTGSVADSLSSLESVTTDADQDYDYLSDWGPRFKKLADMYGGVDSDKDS
In words: flow cytometry; 293α cells transfected with EC3-deleted hCDH6 (open line) against untransfected 293α cells (shaded); APC anti-human IgG goat F(ab')2; antibody concentration not given.

Another assay deals with T3, mouse CDH6, on cells (mouse, UniProt P97326 54-790).
T3 construct: also called mCDH6; NP_031692
T3 sequence: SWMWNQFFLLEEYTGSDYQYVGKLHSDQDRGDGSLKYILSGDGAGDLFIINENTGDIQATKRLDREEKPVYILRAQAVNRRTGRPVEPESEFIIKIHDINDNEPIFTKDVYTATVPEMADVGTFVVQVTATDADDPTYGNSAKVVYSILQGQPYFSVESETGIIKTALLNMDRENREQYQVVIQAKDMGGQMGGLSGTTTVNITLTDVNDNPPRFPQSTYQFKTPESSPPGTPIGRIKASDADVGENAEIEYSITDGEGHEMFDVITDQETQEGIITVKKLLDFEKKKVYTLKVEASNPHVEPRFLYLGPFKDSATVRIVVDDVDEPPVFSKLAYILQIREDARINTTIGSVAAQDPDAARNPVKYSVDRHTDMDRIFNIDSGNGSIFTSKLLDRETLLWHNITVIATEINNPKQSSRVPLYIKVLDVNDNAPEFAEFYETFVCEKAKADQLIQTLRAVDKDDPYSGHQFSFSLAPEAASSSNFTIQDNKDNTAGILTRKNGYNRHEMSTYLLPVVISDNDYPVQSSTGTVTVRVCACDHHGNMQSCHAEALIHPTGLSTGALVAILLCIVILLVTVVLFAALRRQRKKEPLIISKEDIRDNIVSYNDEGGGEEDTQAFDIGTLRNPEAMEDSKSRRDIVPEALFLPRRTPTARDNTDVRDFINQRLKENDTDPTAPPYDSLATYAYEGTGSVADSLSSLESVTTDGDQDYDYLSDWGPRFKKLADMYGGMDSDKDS
The experiment in a line: flow cytometry; 293α cells transfected with mCDH6; PE anti-human IgG Fc(gamma) goat F(ab').

The target of assay [2] is T4, Recombinant Human CDH6 Fc His chimera (R&D Systems, Inc.) (human, UniProt P55285 54-615).
T4 construct: Bought reagent; also called the antigen; human CDH6 antigen; Fc part of the bought chimera not given; His tag of the bought chimera
T4 sequence: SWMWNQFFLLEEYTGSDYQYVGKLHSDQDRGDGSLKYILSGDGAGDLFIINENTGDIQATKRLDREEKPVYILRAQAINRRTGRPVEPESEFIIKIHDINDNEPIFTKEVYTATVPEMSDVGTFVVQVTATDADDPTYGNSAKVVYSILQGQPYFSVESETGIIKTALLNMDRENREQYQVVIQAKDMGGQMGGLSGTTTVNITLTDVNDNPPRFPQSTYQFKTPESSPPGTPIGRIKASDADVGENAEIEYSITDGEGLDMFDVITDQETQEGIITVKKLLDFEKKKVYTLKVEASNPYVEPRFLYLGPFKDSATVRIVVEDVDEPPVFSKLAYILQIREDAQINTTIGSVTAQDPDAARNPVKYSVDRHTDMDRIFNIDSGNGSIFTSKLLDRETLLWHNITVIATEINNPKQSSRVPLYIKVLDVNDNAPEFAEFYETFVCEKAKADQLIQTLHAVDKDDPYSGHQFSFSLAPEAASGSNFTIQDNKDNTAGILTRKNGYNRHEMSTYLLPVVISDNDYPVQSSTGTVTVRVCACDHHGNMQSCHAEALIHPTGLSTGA
The experiment in a line: SPR (Biacore T200); antigen captured by immobilized anti-His antibody, antibody as analyte 0.391 to 100 nM; steady state affinity model. A general note: Surface plasmon resonance follows binding to a sensor surface in real time, without labels.

For assay [3], the target named is T5, human CDH6 (cadherin-6), full-length, on cells (human, UniProt P55285 54-790).
T5 construct: also called hCDH6; full-length hCDH6
T5 sequence: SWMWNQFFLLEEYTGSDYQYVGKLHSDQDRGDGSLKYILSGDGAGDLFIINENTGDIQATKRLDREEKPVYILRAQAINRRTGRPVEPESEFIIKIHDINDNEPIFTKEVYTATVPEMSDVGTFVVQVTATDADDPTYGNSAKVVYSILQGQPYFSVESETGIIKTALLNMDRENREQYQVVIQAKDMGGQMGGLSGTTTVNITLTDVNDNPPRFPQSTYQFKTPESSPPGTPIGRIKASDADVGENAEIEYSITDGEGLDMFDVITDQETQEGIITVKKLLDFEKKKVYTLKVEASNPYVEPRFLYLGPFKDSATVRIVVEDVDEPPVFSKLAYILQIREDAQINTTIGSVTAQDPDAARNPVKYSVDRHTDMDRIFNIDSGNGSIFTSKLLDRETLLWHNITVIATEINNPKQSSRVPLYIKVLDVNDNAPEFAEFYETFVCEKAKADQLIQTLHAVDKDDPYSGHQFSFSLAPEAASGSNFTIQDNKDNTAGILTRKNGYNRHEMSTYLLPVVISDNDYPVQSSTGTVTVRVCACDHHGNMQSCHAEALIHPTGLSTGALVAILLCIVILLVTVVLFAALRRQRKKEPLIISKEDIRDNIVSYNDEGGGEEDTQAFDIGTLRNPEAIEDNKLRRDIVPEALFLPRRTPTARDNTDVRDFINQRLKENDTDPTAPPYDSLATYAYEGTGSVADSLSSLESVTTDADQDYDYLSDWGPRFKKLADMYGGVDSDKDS
In words: flow cytometry; 293α cells transfected with full-length hCDH6 (open line) against untransfected 293α cells (shaded); APC anti-human IgG goat F(ab')2; antibody concentration not given.

In assay [4] the target is T6, EC5 deletion mutant of human CDH6, on cells (human, UniProt P55285 54-790).
T6 construct: in p3×FLAG-CMV-9; also called EC5-deleted hCDH6
T6 sequence: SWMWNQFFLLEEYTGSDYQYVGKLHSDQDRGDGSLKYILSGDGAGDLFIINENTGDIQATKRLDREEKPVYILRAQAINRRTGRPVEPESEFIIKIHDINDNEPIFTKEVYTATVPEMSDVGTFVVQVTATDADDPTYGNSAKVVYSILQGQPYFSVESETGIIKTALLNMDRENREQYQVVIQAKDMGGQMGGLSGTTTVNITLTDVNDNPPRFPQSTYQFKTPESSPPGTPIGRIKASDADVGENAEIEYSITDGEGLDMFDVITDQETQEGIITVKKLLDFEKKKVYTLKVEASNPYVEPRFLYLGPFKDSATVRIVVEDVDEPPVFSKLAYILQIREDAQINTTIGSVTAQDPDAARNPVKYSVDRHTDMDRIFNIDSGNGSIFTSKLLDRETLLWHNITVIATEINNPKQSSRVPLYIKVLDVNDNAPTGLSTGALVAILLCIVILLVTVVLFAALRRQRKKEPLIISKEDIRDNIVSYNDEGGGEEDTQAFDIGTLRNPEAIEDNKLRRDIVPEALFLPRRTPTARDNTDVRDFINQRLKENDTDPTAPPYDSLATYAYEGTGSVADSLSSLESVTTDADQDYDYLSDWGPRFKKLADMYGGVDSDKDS
In words: flow cytometry; 293α cells transfected with EC5-deleted hCDH6 (open line) against untransfected 293α cells (shaded); APC anti-human IgG goat F(ab')2; antibody concentration not given.

Results on two molecules are retold here after patent publication US20240390512A1 (Daiichi Sankyo, published 2024).

B1: humanized anti-CDH6 antibody H04L02 (antibody, human IgG1, kappa, V domains shown)
VH: QVQLVQSGAEVKKPGASVKVSCKASGYTFTRNFMHWIRQAPGQGLEWMGWIYPGDGETEYAQKFQGRVTLTADRSTSTAYMELSSLRSEDTAVYYCARGVYGGFAGGYFDFWGQGTLVTVSS
VL: DIQMTQSPSSLSASVGDRVTITCKASQNIYKNLAWYQQKPGKAPKLLIYDANTLQTGVPSRFSGSGSGSDFTLTISSLQPEDFATYFCQQYYSGWAFGQGTKVEIKR
notes: hH04 heavy chain and hL02 light chain, human IgG1 / kappa; also called H04L02 antibody
Usually Kd stands for the equilibrium constant for the complex coming apart. For B1, the binding result in the assay with rat CDH6, on cells is on record as “no binding (tested: about 4, unit not printed on the axis)”; in assay [1], “no binding”; with mouse CDH6, on cells, “no binding (tested: about 4, unit not printed on the axis)”. The Kd in assay [2] is 1.1 nM.

B2: anti-CDH6 antibody NOV0712 (antibody, human IgG1, kappa, V domains shown)
VH: QVQLLESGGGLVQPGGSLRLSCAASGFTFSSHGMHWVRQAPGKGLEWVSVISGSGSNTGYADSVKGRFTISRDNSKNTLYLQMNSLRAEDTAVYYCARQWGSYAFDSWGQGTLVTVSS
VL: DIQMTQSPSSLSASVGDRVTITCRASQSISSYLNWYQQKPGKAPKLLIYAVSTLQSGVPSRFSGSGSGTDFTLTISSLQPEDFATYYCQQSGTFPPTTFGQGTKVEIKR
notes: Made after WO 2016/024195; also called NOV0712 antibody
Take B2: the binding result in assay [3] is on record as “binds”; in assay [4], “no binding”.
